Results as given in patent US20160195541A1.
“And” between values parts separate entries of the source, which are not always exact repeats. Equal entries are not always repeated.

How the values were obtained:
[1] = target: aggregated human IgG (aggregated Beriglobin, aggregated fraction isolated by size exclusion chromatography) (human); test: sigmoid logistic fit of FACS competition on Raji cells (FACS021): inhibition of aggregated IgG binding to cell FcγRIIB
[2] = target: aggregated human IgG (aggregated Beriglobin, aggregated fraction isolated by size exclusion chromatography) (human); test: apparent KD, FACS competition on Raji cells, mean of tests #1-17 without #4 and #6
[3] = target: aggregated human IgG (aggregated Beriglobin, aggregated fraction isolated by size exclusion chromatography) (human); test: apparent KD, Langmuir fit of FACS competition on Raji cells (FACS007)
[4] = target: aggregated human IgG (aggregated Beriglobin, aggregated fraction isolated by size exclusion chromatography) (human); test: apparent KA, Langmuir fit of FACS competition on Raji cells (FACS021)
[5] = target: aggregated human IgG (aggregated Beriglobin, aggregated fraction isolated by size exclusion chromatography) (human); test: sigmoid logistic fit of FACS competition on Raji cells (FACS007): inhibition of aggregated IgG binding to cell FcγRIIB
[6] = target: aggregated human IgG (aggregated Beriglobin, aggregated fraction isolated by size exclusion chromatography) (human); test: apparent KA, Langmuir fit of FACS competition on Raji cells (FACS007)
[7] = target: aggregated human IgG (aggregated Beriglobin, aggregated fraction isolated by size exclusion chromatography) (human); test: FACS competition on Raji cells (FACS007), inhibition of aggregated IgG binding to cell FcγRIIB at 0.25 µg/µL SM101
[8] = target: aggregated human IgG (aggregated Beriglobin, aggregated fraction isolated by size exclusion chromatography) (human); test: apparent KD, FACS competition on Raji cells, mean of 25 experiments
[9] = target: aggregated human IgG (aggregated Beriglobin, aggregated fraction isolated by size exclusion chromatography) (human); test: apparent KD, Langmuir fit of FACS competition on Raji cells (FACS021)
[10] = target: aggregated human IgG (aggregated Beriglobin, aggregated fraction isolated by size exclusion chromatography) (human); test: FACS competition on Raji cells (FACS007), inhibition of aggregated IgG binding to cell FcγRIIB at 0.0078 µg/µL SM101
[11] = target: aggregated human IgG (aggregated Beriglobin, aggregated fraction isolated by size exclusion chromatography) (human); test: FACS competition on Raji cells (FACS007), inhibition of aggregated IgG binding to cell FcγRIIB at 0.03125 µg/µL SM101
[12] = target: aggregated human IgG (aggregated Beriglobin, aggregated fraction isolated by size exclusion chromatography) (human); test: FACS competition on Raji cells (FACS007), inhibition of aggregated IgG binding to cell FcγRIIB at 0.5 µg/µL SM101
[13] = target: aggregated human IgG (aggregated Beriglobin, aggregated fraction isolated by size exclusion chromatography) (human); test: FACS competition on Raji cells (FACS007), inhibition of aggregated IgG binding to cell FcγRIIB at 0.0156 µg/µL SM101
[14] = target: aggregated human IgG (aggregated Beriglobin, aggregated fraction isolated by size exclusion chromatography) (human); test: FACS competition on Raji cells (FACS021), inhibition of aggregated IgG binding to cell FcγRIIB at 0.03125 µg/µL
[15] = target: aggregated human IgG (aggregated Beriglobin, aggregated fraction isolated by size exclusion chromatography) (human); test: FACS competition on Raji cells (FACS007), inhibition of aggregated IgG binding to cell FcγRIIB at 0.0625 µg/µL SM101
[16] = target: aggregated human IgG (aggregated Beriglobin, aggregated fraction isolated by size exclusion chromatography) (human); test: apparent KD, FACS competition on Raji cells (Example 1), as told in the description
[17] = target: aggregated human IgG (aggregated Beriglobin, aggregated fraction isolated by size exclusion chromatography) (human); test: apparent KD, FACS competition on Raji cells, mean of tests #18-25
[18] = target: aggregated human IgG (aggregated Beriglobin, aggregated fraction isolated by size exclusion chromatography) (human); test: FACS competition on Raji cells (FACS021), inhibition of aggregated IgG binding to cell FcγRIIB at 0.0625 µg/µL
[19] = target: aggregated human IgG (aggregated Beriglobin, aggregated fraction isolated by size exclusion chromatography) (human); test: FACS competition on Raji cells (FACS007), inhibition of aggregated IgG binding to cell FcγRIIB at 0.125 µg/µL SM101
[20] = target: aggregated human IgG (aggregated Beriglobin, aggregated fraction isolated by size exclusion chromatography) (human); test: FACS competition on Raji cells, mean of 25 experiments
[21] = target: aggregated human IgG (aggregated Beriglobin, aggregated fraction isolated by size exclusion chromatography) (human); test: FACS competition control on Raji cells: constant aggregated Beriglobin, CSA in place of SM101; bound aggregated IgG detected with anti-human IgG(H+L)-PE; interaction tested for blocking: aggregated IgG with membrane-bound FcγRIIB
[22] = SM101 investigational medicinal product

In the case of “SM101 (soluble human FcγRIIB, sFcγRIIB) (from UniProt P31994 46-217) (receptor)”, the IC50 [1] is reported as 12.9 µg/mL and 16.2 µg/mL, the Kd [2] is reported as 680 nM and the Kd [3] is reported as 990 nM. For the same molecule, the Ka [4] was 1.35e+06 M⁻¹ and 1.11e+06 M⁻¹, the IC50 [5] was 17.7 µg/mL and the Ka [6] was 1.02e+06 M⁻¹. For the same molecule, the norm. Signal (% inhibition) [7] was 98.4%, the Kd [8] was 530 nM and the Kd [9] was 740 nM and 900 nM. It also gave a norm. Signal (% inhibition) [10] of 23.2%, a norm. Signal (% inhibition) [11] of 70.5% and a norm. Signal (% inhibition) [12] of 97.3%. For the same molecule, the norm. Signal (% inhibition) [13] was 43%, the norm. Signal (% inhibition) [14, 22] was 75.7% and the norm. Signal (% inhibition) ([14]; SM101 reference standard) was 75.9%. The norm. Signal (% inhibition) [15] was 91.2%, the Kd [16] was 980 nM and the Kd [17] was 260 nM. The norm. Signal (% inhibition) [18, 22] was 89.6%, the norm. Signal (% inhibition) ([18]; SM101 reference standard) was 87.3% and the norm. Signal (% inhibition) [19] was 94.9%. For the same molecule, the IC50 [20] was 10.6 µg/mL.

B1: chicken serum albumin (protein, UniProt P19121 24-615, looked up)
Albumin: FARDAEHKSEIAHRYNDLKEETFKAVAMITFAQYLQRCSYEGLSKLVKDVVDLAQKCVANEDAPECSKPLPSIILDEICQVEKLRDSYGAMADCCSKADPERNECFLSFKVSQPDFVQPYQRPASDVICQEYQDNRVSFLGHFIYSVARRHPFLYAPAILSFAVDFEHALQSCCKESDVGACLDTKEIVMREKAKGVSVKQQYFCGILKQFGDRVFQARQLIYLSQKYPKAPFSEVSKFVHDSIGVHKECCEGDMVECMDDMARMMSNLCSQQDVFSGKIKDCCEKPIVERSQCIMEAEFDEKPADLPSLVEKYIEDKEVCKSFEAGHDAFMAEFVYEYSRRHPEFSIQLIMRIAKGYESLLEKCCKTDNPAECYANAQEQLNQHIKETQDVVKTNCDLLHDHGEADFLKSILIRYTKKMPQVPTDLLLETGKKMTTIGTKCCQLGEDRRMACSEGYLSIVIHDTCRKQETTPINDNVSQCCSQLYANRRPCFTAMGVDTKYVPPPFNPDMFSFDEKLCSAPAEEREVGQMKLLINLIKRKPQMTEEQIKTIADGFTAMVDKCCKQSDINTCFGEEGANLIVQSRATLGIGA
With B1 the Median PE-A of aggregated IgG bound to Raji cells at 0.0156 µg/µL CSA [21] was 3770, the Median PE-A of aggregated IgG bound to Raji cells at 0.03125 µg/µL CSA [21] was 3700 and the Median PE-A of aggregated IgG bound to Raji cells at 0.0625 µg/µL CSA [21] was 3830. It also gave a Median PE-A of aggregated IgG bound to Raji cells at 0.125 µg/µL CSA [21] of 4140, a Median PE-A of aggregated IgG bound to Raji cells at 0.25 µg/µL CSA [21] of 4570 and a Median PE-A of aggregated IgG bound to Raji cells at 0.5 µg/µL CSA [21] of 4940. The Median PE-A of aggregated IgG bound to Raji cells at the CSA concentration labelled 0'078 (0.0078 µg/µL by the series in legend paragraph 80) [21] was 4180.
